The results in this text go back to patent publication US20110217282.

For one data set, the target named is T1, MazE, P0AE72.
T1 chain: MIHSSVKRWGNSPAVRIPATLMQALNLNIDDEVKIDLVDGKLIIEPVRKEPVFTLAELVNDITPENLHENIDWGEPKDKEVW

For data set [1], the target named is T2, C-terminal histidine-tagged YgiT.
T2 chain: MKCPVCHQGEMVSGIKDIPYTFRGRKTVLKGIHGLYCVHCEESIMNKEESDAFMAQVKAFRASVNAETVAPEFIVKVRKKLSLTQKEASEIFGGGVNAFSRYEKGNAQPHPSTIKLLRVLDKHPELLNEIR

B1: MazF (protein)
chain: MVSRYVPDMGDLIWVDFDPTKGSEQAGHRPAVVLSPFMYNNKTGMCLCVPCTTQSKGYPFEVVLSGQERDGVALADQVKSIAWRARGATKKGTVAPEELQLIKAKINVLIG
In the case of B1, the “cleavage of MS2 RNA (agarose gel)” value is recorded as “its activity was completely inhibited when it was preincubated with purified MazE, the antidote of MazF” with MazE, P0AE72 and “when MazF was incubated with purified YgiT-H, its activity was not inhibited” in data set [1].
